Ends that are not written are not given here.
How the values were obtained:
[1] = biological target: D-IZN17 (HIV-1) (UniProt P04578); test: clonal phage binding assay in the presence of 25 µM L-2K-PIE2 competitor
[2] = biological target: D-IZN17 (HIV-1) (UniProt P04578); test: clonal phage binding assay, solution phase, D-IZN17 pulled down on streptavidin beads

B1: PIE7-φ (peptide)
peptide: GACDYPEWQWLCAA
modifications: not fully specified (C-terminus); cysteine pairing not given here; also: displayed on M13 g3 protein
fold binding relative to PIE2-φ [1]: 10 fold

B2: PIE8-φ (peptide)
peptide: GACDYKEWQWLCAA
modifications: not fully specified (C-terminus); cysteine pairing not given here; also: displayed on M13 g3 protein
fold binding relative to PIE2-φ [1]: 2 fold

B3: PIE2-φ (peptide)
peptide: GACDYPEWRWLCAA
modifications: not fully specified (C-terminus); cysteine pairing not given here; also: displayed on M13 g3 protein
fold binding relative to PIE1-φ [2]: 5 fold | fold binding relative to PIE9-φ [1]: 3 fold

B4: PIE2-AAA-φ (peptide)
peptide: GACDYPEWRWLCAAA
fold binding relative to wt PIE2-φ [1]: 70 fold
